Experimental data from PMC11075064.

Biological target: KCC2 (SLC12A5), neuron-specific K+/Cl- transporter (mouse (endogenous in brain)) (UniProt Q91V14)
Test: co-IP

Chain of UniProt Q91V14 (Q91V14 whole entry): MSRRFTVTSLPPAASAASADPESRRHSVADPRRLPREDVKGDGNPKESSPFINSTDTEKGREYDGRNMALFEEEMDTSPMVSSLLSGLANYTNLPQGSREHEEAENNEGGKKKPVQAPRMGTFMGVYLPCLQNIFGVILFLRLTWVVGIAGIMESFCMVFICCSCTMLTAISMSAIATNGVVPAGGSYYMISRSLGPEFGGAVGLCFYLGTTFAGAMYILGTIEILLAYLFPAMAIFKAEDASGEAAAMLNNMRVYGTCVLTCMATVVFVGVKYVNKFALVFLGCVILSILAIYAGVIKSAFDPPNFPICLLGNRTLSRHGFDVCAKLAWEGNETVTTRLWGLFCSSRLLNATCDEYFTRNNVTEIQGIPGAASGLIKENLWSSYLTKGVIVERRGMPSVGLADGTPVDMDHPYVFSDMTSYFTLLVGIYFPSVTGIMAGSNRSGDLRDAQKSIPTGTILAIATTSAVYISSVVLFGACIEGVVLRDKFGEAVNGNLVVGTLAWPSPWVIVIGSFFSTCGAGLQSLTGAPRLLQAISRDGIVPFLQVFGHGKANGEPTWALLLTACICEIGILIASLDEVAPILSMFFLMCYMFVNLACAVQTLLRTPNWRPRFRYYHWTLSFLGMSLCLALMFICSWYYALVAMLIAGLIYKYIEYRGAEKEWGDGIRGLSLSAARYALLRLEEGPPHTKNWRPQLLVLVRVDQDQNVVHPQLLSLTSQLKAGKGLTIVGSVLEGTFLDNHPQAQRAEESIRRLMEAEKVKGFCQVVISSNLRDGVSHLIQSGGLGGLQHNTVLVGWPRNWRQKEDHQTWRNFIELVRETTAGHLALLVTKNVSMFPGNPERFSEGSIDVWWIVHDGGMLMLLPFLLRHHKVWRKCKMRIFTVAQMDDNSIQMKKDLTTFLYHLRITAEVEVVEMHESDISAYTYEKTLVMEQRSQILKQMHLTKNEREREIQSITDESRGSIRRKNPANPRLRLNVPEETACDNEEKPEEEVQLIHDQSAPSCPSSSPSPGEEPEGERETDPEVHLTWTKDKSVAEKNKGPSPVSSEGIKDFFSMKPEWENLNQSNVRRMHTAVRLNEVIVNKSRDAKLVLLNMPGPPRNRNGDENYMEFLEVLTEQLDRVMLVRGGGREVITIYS

ratio of PP1/KCC2 immunoreactivity in LMTK3 KO mice, percent of WT: 28.6 % of WT
Substance: catalytic subunit of protein phosphatase-1 (PP1) (from UniProt P62137 1-330) (enzyme)
